B1: se1.27b04: soybean type I GST encoded by cDNA insert in clone se1.27b04 (protein)
chain: MICLHEKEVDFELVPVNVFAAEHKQPPFLSKNPFGFIPVLEDGDLTLFESRAITAYVAEKFKETEPDLIRHKDAKEAALVKVWTEVESHYYEPAVSPIIYEYFVAPFQGKEPDKSVIDTNVEKLKTVLDVYEAKLSSTKYLAGDFYSLADLSHVSETHYLMQTPCASMINELPHVKAWWEDISSRPAFNKVVGGMSFGQNH
B2: ssm.pk0026.g11: soybean type II GST encoded by cDNA insert in clone ssm.pk0026.g11 (protein)
chain: MASASVGKELTLYSYWRSSCSHRVRIALNLKGLKYEYKPVNLLKGEQSRPEFLQLNPVGCVPVLVDDHVVLYDSFAIIMYLEDKYPHNPLLPHDIYKRAINFQAASVVSSTIQPLHNLSLLNYIGEKVGPDEKLPWAQSIIRRGFKALEKLLKDHTGRYATGDEVFLADIFLAPQLHAAFKRFNIHMNEFPILARLHETYNEIPAFQEALPENQPDAVH
B3: se1.pk0017.f5: soybean type IV GST encoded by cDNA insert in clone se1.pk0017.f5 (protein)
chain: MASLGVRPVLPPPLTSISDPPPLFDGTTRLYISYSCPYAQRVWIARNYKGLQDKINLVPINLQDRPAWYKEKVYPENKVPSLEHNGKVLGESLDLIKYVDANFEGTPLFPSDPAKKEFGEQLISHVDTFSKDLFVSLKGDAVQQASPAFEYLENALGKFDDGPFLLGQFSLVDIAYIPFVERFQIVFAEVFKHDITEGRPKLATWFEELNKLNAYTETRVDPQEIVDLFKKRFLPQQ

experiment: GST conjugation activity with chlorimuron ethyl (HPLC); format: biochemical; settings: 0.4 mM electrophilic substrate, 4 mM glutathione, 0.1 M MOPS pH 7.0, corrected for uncatalyzed reaction
Excerpt: (§1) The GST enzymes, expressed and purified as described in Example 5 were screened for their ability to metabolize a variety of substrates. Substrates tested included the three herbicide electrophilic substrates chlorimuron ethyl, alachlor, and Atrazine, and four model electrophilic substrates, 1-chloro-2, 4-dinitro-benzene (CDNB), ethacrynic acid, t-stilbene oxide, and 1,2-epoxy-3-(p-nitro-phenoxy) propane. The enzymes were purified as described in Example 5 and used in the following assay.
(§2) For each enzyme, the conjugation reaction with each electrophilic substrate was performed by incubating 0.3 to 30 μg enzyme in 0.1 M MOPS (pH 7.0) containing 0.4 mM of the electrophilic substrate. The reaction was inititated by the addition of glutathione to a final concentration of 4 mM. After 5 to 30 min, the reaction was terminated by the addition of 45 μL acetonitrile, microfuged for 10 min to remove precipitated protein, and then the supematent was removed and added to 65 μL of water. This sample was chromatographed on a Zorbax C8 reverse phase HPLC column (3 μm particle size, 6.2 mm×8 cm) using a combination of linear gradients (flow=1.5 mL/min) of 1% H3 PO4 in water (solvent A) and 1% H3 PO4 in acetonitile. The gradient started with 5% solvent B, progressing from 5% to 75% solvent B between 1 and 10 min, and from 75% to 95% solvent B between 10 and 12 min. Control reactions without enzyme were performed to correct for uncatalyzed reaction. Quantitation of metabolites were based on an assumption that the extinction coefficient of the conjugate was identical to that of the electrophilic substrate.
(§3) Activities are related to the activity of a known and previously isolated and purified GST enzyme, GH2/4 (also called GST 26) (Czarnecka et al., Plant Molecular Biology 3:45-58 (1984); Ulmasoz et al., Plant Physiol 108:919-927 (1995)).

Compared with B1, B2 is lower in “Activity of soybean GST enzyme, Chlorimuron Ethyl” value: 0.1 nmol/min/mg for the first, 0.0 nmol/min/mg for the second.

For B3, the “Activity of soybean GST enzyme, Chlorimuron Ethyl” value was 0.0 nmol/min/mg.

experiment: GST conjugation activity with ethacrynic acid (HPLC); format: biochemical; settings: 0.4 mM electrophilic substrate, 4 mM glutathione, 0.1 M MOPS pH 7.0, corrected for uncatalyzed reaction
Excerpt: as §1, §2, §3

Compared with B1, B2 is lower in “Activity of soybean GST enzyme, Ethacrynic Acid” value: 11 nmol/min/mg for the first, 5 nmol/min/mg for the second.

In the case of B3, the “Activity of soybean GST enzyme, Ethacrynic Acid” value is reported as 3 nmol/min/mg.

experiment: GST conjugation activity with CDNB (HPLC); format: biochemical; settings: 0.4 mM electrophilic substrate, 4 mM glutathione, 0.1 M MOPS pH 7.0, corrected for uncatalyzed reaction
Excerpt: as §1, §2, §3

B1 and B2 are the same in “Activity of soybean GST enzyme, CDNB” value: 15 nmol/min/mg for the first, 15 nmol/min/mg for the second.

For B3, the “Activity of soybean GST enzyme, CDNB” value was 30 nmol/min/mg.

experiment: GST conjugation activity with t-stilbene oxide (HPLC); format: biochemical; settings: 0.4 mM electrophilic substrate, 4 mM glutathione, 0.1 M MOPS pH 7.0, corrected for uncatalyzed reaction
Excerpt: as §1, §2, §3

Going from B1 to B2, the “Activity of soybean GST enzyme, T-Stilbene Oxide” value rises from 0.00 nmol/min/mg to 0.04 nmol/min/mg.

With B3 the “Activity of soybean GST enzyme, T-Stilbene Oxide” value was 0.15 nmol/min/mg.

experiment: GST conjugation activity with Atrazine (HPLC); format: biochemical; settings: 0.4 mM electrophilic substrate, 4 mM glutathione, 0.1 M MOPS pH 7.0, corrected for uncatalyzed reaction
Excerpt: as §1, §2, §3

B1 and B2 are the same in “Activity of soybean GST enzyme, Atrazine” value: 0.00 nmol/min/mg for the first, 0.00 nmol/min/mg for the second.

For B3, the “Activity of soybean GST enzyme, Atrazine” value was 0.00 nmol/min/mg.

experiment: GST conjugation activity with alachlor (HPLC); format: biochemical; settings: 0.4 mM electrophilic substrate, 4 mM glutathione, 0.1 M MOPS pH 7.0, corrected for uncatalyzed reaction
Excerpt: as §1, §2, §3

B1 and B2 are the same in “Activity of soybean GST enzyme, Alachlor” value: 0 nmol/min/mg for the first, 0 nmol/min/mg for the second.

For B3, the “Activity of soybean GST enzyme, Alachlor” value was 0 nmol/min/mg.

experiment: GST conjugation activity with 1,2-epoxy-3-(p-nitrophenoxy)propane (HPLC); format: biochemical; settings: 0.4 mM electrophilic substrate, 4 mM glutathione, 0.1 M MOPS pH 7.0, corrected for uncatalyzed reaction
Excerpt: as §1, §2, §3

Going from B1 to B2, the “Activity of soybean GST enzyme, 1,2-epoxy-3-(p-nitrophenoxy)propane” value rises from 0 nmol/min/mg to 2 nmol/min/mg.

For B3, the “Activity of soybean GST enzyme, 1,2-epoxy-3-(p-nitrophenoxy)propane” value was 0 nmol/min/mg.

From patent publication US6168954A, “Soybean glutathione-S-transferase enzymes” (E. I. du Pont de Nemours & Company, priority 1999, dated 2001)
